Assay: soluble on expression in E. coli; label from the status in PepcDB or PDB records

Row | Sequence | soluble on expression in E. coli
1 | MAEPWGNELASAAARGDLEQLTSLLQNNVNVNAQNGFGRTALQVMKLGNPEIARRLLLRGANPDLKDRTGNAVIHDAARAGFLDTLQTLLEFQADVNIEDNEGNLPLHLAAKEGHLRVVEFLVKHTASNVGHRNHKGDTACDLARLYGRNEVVSLMQANGAGGATNLQ | soluble
2 | MGSDKIHHHHHHMSDLQSLQPKLLWQWFDQICAIPHPSYKEEQLAQFIINWAKTKGFFAERDEVGNVLIRKPATVGMENRKPVVLQAHLDMVPQANEGTNHNFDQDPILPYIDGDWVKAKGTTLGADNGIGMASALAVLESNDIAHPELEVLLTMTEERGMEGAIGLRPNWLRSEILINTDTEENGEIYIGCAGGENADLELPIEYQVNNFEHCYQVVLKGLRGGHSGVDIHTGRANAIKVLLRFLAELQQNQPHFDFTLANIRGGSIRNAIPRESVATLVFNGDITVLQSAVQKFADVIKAELALTEPNLIFTLEKVEKPQQVFSSQCTKNIIHCLNVLPNGVVRNSDVIENVVETSLSIGVLKTEDNFVRSTMLVRSLIESGKSYVASLLKSLASLAQGNINLSGDYPGWEPQSHSDILDLTKTIYAQVLGTDPEIKVIHAGLECGLLKKIYPTIDMVSIGPTIRNAHSPDEKVHIPAVETYWKVLTGILAHIPSR | not soluble
3 | MIKKIYFGNDHAAYEIKDQIITHLKQKGYQIIDEGAQAALGSVDYSTYALKVANDVVNDTKNDSIGILLCGTGIGMNIAASKVHGTRVALVYNESSAKLAKEHNNANIITIGARENSLNQILKMIDDFLTSKFLGERHQKRLDIIAKYEKEQNS | soluble
4 | MATGKGEYHMGNTMTKAIYDKFKVATPYGNKVATGAIPAEAVNIAVKVGGFKVGDQNYPINPKITFTNNTGIDIPGGTEFQFDIPVSAPDNAKDQSGGGLKVIASGHTRANNIGGLDGTMHRVAFSLPAWKSLPAGATYELDMVYYLPISGPANYTVKINNVEYAFSFEQPDLPVADLTALEHHHHHH | soluble
5 | VPLPVPDFTASPMTISVGESVQFQDQTTNNPTNWEWTFEGGQPAMSTEQNPLVSYSHPGQYDVTLKVWNASGSNTITKEKFITVNAVMPVAEFVGTPTEIEEGQTVSFQNQSTNATNYVWIFDGGTPATSEDENPTVLYSKAGQYDVTLKAISASGETVKTKEKYITVKKAPVPA | not soluble
6 | LKDSYVEYTLLYDTIASRISIDEVEAKDGKLRLMKNVWWEYDKLPHMLIAGGTGGGKTYFILTLIEALLHTDSKLYILDPKNADLADLGSVMANVYYRKEDLLSCIETFYEEMMKRSEEMKQMKNYKTGKNYAYLGLPAHFLIFDEYVAFMEMLGTKENTAVMNKLKQIVMLGRQAGFFLILACQRPDA | not soluble
7 | MRYGEKEIKEFDVENMEIWPNDAKNDYIIKITLPEFMCCCPRSGYPDFATIYLEYMPDKFVVELKAIKLYINTFMYRNVSHEASINEIYNTLKDKLKPKWIKVVGDFNPRGNVHTVIECRSDMVVPK | not soluble
8 | MSLLSYRHGFHAGNQADVFKHSALFSFLKVYTQKQKPFTAFDLNAGSASYNLLSEWSLKTGEAEEGIIRFLDLYKKEKLPLPIPEGFKAYLDFCLKNYDENSSYAGSPEIIRSFLQKESNLILCDLHSAEAEKLKELYKRVENVHVHKRDCYEAVRALTPPLPIRGFALFDPSYEVDSDYTAIAESVEKVCKKWPIGIFIIWYPILNHKTEECRNLKDRISKAMNNKVLNIEVKHFSNKIDSENEYGLQGSGLLITNPPWGLEEKLKEICEYVEKVSAGLDEGHHHHHH | soluble
9 | MISMKPRYKPDWESLREHTVPKWFDKAKFGIFIHWGIYSVPGWATPTGELGKVPMDAWFFQNPYAEWYENSLRIKESPTWEYHVKTYGENFEYEKFADLFTAEKWDPQEWADLFKKAGAKYVIPTTKHHDGFCLWGTKYTDFNSVKRGPKRDLVGDLAKAVREAGLRFGVYYSGGLDWRFTTEPIRYPEDLSYIRPNTYEYADYAYKQVMELVDLYLPDVLWNDMGWPEKGKEDLKYLFAYYYNKHPEGSVNDRWGVPHWDFKTAEYHVNYPGDLPGYKWEFTRGIGLSFGYNRNEGPEHMLSVEQLVYTLVDVVSKGGNLLLNVGPKGDGTIPDLQKERLLGLGEWLRKYGDAIYGTSVWERCCAKTEDGTEIRFTRKCNRIFVIFLGIPTGEKIVIEDLNLSAGTVRHFLTGERLSFKNVGKNLEITVPKKLLETDSITLVLEAVEEHHHHHH | soluble
10 | MSLSITHQPANLTLAQIQQMIGGVMLLSQHSPLHRRYVVAEWLQRILPAFELNQFCYYEDEHGRPIAFCNWAFVSEQIRDELLSGVREISPSDWRSGQQIYIPEMIAPFGHGREVVNDLRRRVFLPWQGQKVCTVRGKVDAQNDRCIRKVQWFSIEGHHHHHH | soluble
11 | MSLKKITMIQTQKKVGRFNIYINNKYAFPVSESILIKYRLHKGQELDENLIEEIKLADDISKGYNAALNYLSYQLRTRKEVEDKLRSLDIHEDYISEIINKLIDLDLINDKNYAESYVRTMMNTSDKGPKVIKLNLSKKGIDDNIAEDALILYTDKLQVEKGVTLAEKLANRYSHDSYRNKQNKIKQSLLTKGFSYDIIDTIIQELDLIFDDEGHHHHHH | soluble
12 | MGSDKIHHHHHHLSSPMRLSFLAAAFAAPLVVSASGAGAAEPTRYPLTLQTCGQTITFDRAPSRVVSIGQSSTEILYLLGLADKVVGTALWVGPVIAGYEAVDAKVPRLADNDPSFESVVGKKPDLVTNQYQWQVGPKGVVATNAQFAELKIPVYTSPADCVGKDNSEGGDGLRTSRFTTDLIYQEIEDLARIFDVSERGEVLINDLKAREAAAKKKIASLRSPVSAVFWFSSADLDIDPYVAGSDGAPGYILSVLGITNVIKSEEEWPTVGWETIAKANPTIIVAGEMTRRRFPVDDIAVKKTFLANDPVTRLMPAVQEGRIVPLDAQAMNPTIRTIEGIEVVADAVIKAGLAQ | not soluble
13 | MLLFSAFLIFGFSIGFSEEASCRHPHERFIGTRCYAFVSKKHTYNTAKEYCDSHGYSLATVDNAITSNFLASSAATEFGSNNGQFWIGLSRKKDYELFNWDDGTIVSYTNFEAGFPNKQDFVAENVRNGRWQTLAEHKELEFVCSYDPTATTSAAPTTIPPTTTTTRAPTTTTVRKTTQTTATTMTTPKPTTTVSTTTTTTVPPTTTPKACPQGFVLFEPTQKCYIVLVYGNDSDYPDVPDDAPFLTRENQRCAKYGATVATIHSSDLNDLFRSLIYERFNDTRYATIGLRNIDMKTISGKWQWFDGTSPDYLNFGNMFPKTGDYIAQTSSQGFWVSYTHTAPNEGVVCSKNRKSERGFTGLVDIDQAAIKKLELQTYLK | not soluble
14 | MGMSSLRDLGLSEYEARAYRSLLETGPTTAKELSRASDVPMGRIYDVLNSLETYNLVRSQTASRPKKYVAVEPDTALDRLLEDKKRELQEKVGQYEEIVDDLSSQLESADPVEEPFWTAAVGPDNSLDLLLERLAAADDEIIMVGSAPARQVDILSGTERIVDELEAALERGVEVSLLVRPDLFESLPEEANREYYERLFHYDNYSARASPNIRTTFELLDGVEVCIEVPHPLGREETFGVIDMKDSDFTADISQAFEEHWAEAKPVGPP | not soluble
15 | MRPARALIDLQALRHNYQLAREVTGAKALAVIKADAYGHGAVRCAQALEAEADGFAVACIEEALELRAAGIRAPILLLEGFFEADELPLIVEHDFWCVVHSLWQLDAIEQARLAKPIHVWLKLDSGMHRVGLHPNDYKAAYQRLQASANVAKIVLMSHFARADELDCTRSVEQVAVFLGARADLTAEISLRNSPAVLGWPRVPSDWVRPGLMLYGSSPFDEPQATASRLQPVMTLESKVICVRELPAGEPVGYGARFITPKPMRIGVVAMGYADGYPRQAPTGTPVFVDGVRSQLLGRVSMDMLCIDLTDVPQAGLGSTVELWGKNILASEVATAADTIPYQIFCNLKRVPRLYSGN | soluble
16 | MGSDKIHHHHHHMIKILVDNTAYKKFFAQHGFSALIEINNKRILFDAGQNSITLRENLRLFNEKEGFDYIVLSHGHYDHCDGLKYVIENDLINGKVIAHKDAFLDKYAGNRYIGIDEEIKEYLLKKADLEIIEEPYKIDKDIIVSGYVPREYEYEMEEFQCIKDGKRVKDEVNDDMFLIAKGILITGCSHSGIINVVEYGKKLSEIKGVLGGFHLVGVSDNYLNRIVDYFKSQDFWIMPMHCTGFKALTKLSQLNNFVYGHVGKIIGI | not soluble
17 | MGRFHRHDDGTVHSHDHDHHGHSHDVGDHSGYETGRERIEVLEDIFHENDHCAADNKELFDAHQVRCINIMSSPGAGKTTVLQHVLRAAEGKVRVGVVEGDIETSLDADRLTGFGAQISLLNTGNGFGGECHLDAPMVSRALRGLDLDTLDVVLIENVGNLVCPAEFEVGEHSKAMIYSVTEGEDKPLKYPVMFRSVDAVVINKIDLLPYLDFDMELFMKNLRQVNPDAKVFEVSAKTGEGLDGWIEWLVGAK | not soluble
18 | MGSDKIHHHHHHMNSGDIPATATFVNGTVNEKAATPRIPHQRPEGCPVSITRDSRAVALLWSFMNNDSSSRIAARLREWIATAAPGARLPSTRSLVAGYQASPVTVQKALQSLTAQGLIESRPGVGTFVRAVRTARPSDYGWQTAALRSPLAPLPSASTTMRDVANNAIAFHSGYPDRELLPERLVRAALTRAARGDAALSRPPAAGLPELQSWFARELGASTPAGTTPPNPSDVVVLPGSQSGLSSIFSALAGRGQPLLMESPTYWGAILAAAQAGVRVVPVPSGPDGPDPAELARAFDETGARLFYAQPNYANPTGAQWAPGRGEEVLEVVRGKGAFLVEDDWAHDFGITTSPVPVASRDDSGHVVYLRSLTKSVSPAIRIAAVIARGPARERILADRAAESMYVSGLLQAAALDVVTQPGWQTHLRSLRHQLQARRDLLVTSIREHAPQAHIEQVPKGGLNLWARLPDATDLDRLTRDCESRGVIIAAGREWFPAEPAGAFIRLNYSGSNPGAFPEGARIIGESIERNSS | not soluble
19 | MQASQFSAQVLDWYDKYGRKTLPWQIDKTPYKVWLSEVMLQQTQVATVIPYFERFMARFPTVTDLANAPLDEVLHLWTGLGYYARARNLHKAAQQVATLHGGKFPETFEEVAALPGVGRSTAGAILSLSLGKHFPILDGNVARVLARCYAVSGWPGKKEVENKLWSLSEQVTPAVGVERFNQAMMDLGAMICTRSKPKCSLCPLQNGCIAAANNSWALYPGKKPK | soluble
20 | TMIAIKPTKLKDFSSLMQLDVQEEQIGFAKPFEQAYQKRNKSEVFFTIYSDYLTVGYLIIDKGFAQHAPFAMRHELGLNYLMIDRRFQRQGIGAEALKKLFVYAYTIDPESTSLCVTVPNSHQGALDFFLACGFTNTEKAIYGEQEKEWLMRHPL | not soluble
21 | MAHHHHHHMKDIINSDFEDNKDERVIIVDENNEFQELKARKIMRMENLWHRSTSIFVFTKIGEEYFIYVHKRSKVKDYCPSYYSIGFGGVVSENEDMLGNAVKELEEESGIKKSPEQLFDLGVVKCDTECSRSFVGSYVSLTLGKPMPFDGVRPLRIFACSSGNFTLLLIPHAAFFRAVTPSPTGCLHRPRLPDHPPAE | soluble
22 | MSLFILKNVTAVQLEPTLVLEGVDIAIEGSLIKAVGPNLRALYPQANYREMGGKLVMPGIVCAHNHFYSGLSRGIMANIAPCPDFISTLKNLWWRLDRALDEESLYYSGLICSLEAIKSGCSAVIDHHASPNFIKGSLNVLRKGFVEAGLRGMTCFETTDRNGGLAELQAGVEENILFAQAIDAAKAKGREPYLVEAHIGAHAPFTVPDEGLAMLREAVQVTGRGLHIHVAEDRYDMAHGHHHHGKEPIARLDEFDLVDSKTLIAHGIYLSPADIELLNSRDAFLVHNARSNMNNHVGYNMHLPEYRNLALGTDGIGSDMLEELKFAYFKHKDAGGALWPDSFARFLWNGNTLLERNFGAKFGRLEPGYKADLTICDYAAPTPLAPRNLGGHLAFGMGSSSVNSVMVEGRMVYQDREFAFDVEPIYQQASKVASRLWQRMDQLAEGHHHHHH | soluble
23 | MKNPGTHILPKNPECSKQKTLTKQLLLLELFEFQLDAQIQQNTFQLELTIQRRKEHLEIDSVMKIKNRNFANFGMFNSLHIIRFWNLFYNRISAADFPENSGFRMFATEILVKLENIGNVM | not soluble

From the DeepSol protein solubility set
